Results taken from article PMC8956256 (Science Advances, 2022).

Molecular target: the molecule itself
Experiment: cryo-EM structure

B1: Human TMEM175 (transmembrane protein 175) (natural protein)
chain: MSQPRTPEQALDTPGDCPPGRRDEDAGEGIQCSQRMLSFSDALLSIIATVMILPVTHTEISPEQQFDRSVQRLLATRIAVYLMTFLIVTVAWAAHTRLFQVVGKTDDTLALLNLACMMTITFLPYTFSLMVTFPDVPLGIFLFCVCVIAIGVVQALIVGYAFHFPHLLSPQIQRSAHRALYRRHVLGIVLQGPALCFAAAIFSLFFVPLSYLLMVTVILLPYVSKVTGWCRDRLLGHREPSAHPVEVFSFDLHEPLSKERVEAFSDGVYAIVATLLILDICEDNVPDPKDVKERFSGSLVAALSATGPRFLAYFGSFATVGLLWFAHHSLFLHVRKATRAMGLLNTLSLAFVGGLPLAYQQTSAFARQPRDELERVRVSCTIIFLASIFQLAMWTTALLHQAETLQPSVWFGGREHVLMFAKLALYPCASLLAFASTCLLSRFSVGIFHLMQIAVPCAFLLLRLLVGLALATLRVLRGLARPEHPPPAPTGQDDPQSQLLPAPC
In the case of B1, the “stoichiometry N” value is reported as 2.
